Test results published in patent US20090155249A1 (AC IMMUNE S A, published 2009).

Target: Amyloid Beta (antigen of the Amyloid Beta ELISA) (UniProt P05067 672-713, limits assumed)
Assay: Amyloid Beta ELISA, purified antibodies, A405

Amyloid Beta (antigen of the Amyloid Beta ELISA), sequence (P05067 672-713 limits assumed): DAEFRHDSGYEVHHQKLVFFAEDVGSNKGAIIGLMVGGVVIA

B1: chimeric antibody C2 ChVH AF/ChVK (antibody, V domains shown)
VH: EVQLVESGGGLVQPGGSLKLSCAASGFTFSSYGMSWVRQTPDKRLELVASINSNGGSTYYPDSVKGRFTISRDNAKNTLYLQMSSLKSEDTAMYYCASGDYWGQGSTLTVSS
VL: DVVMTQTPLSLPVSLGDQASISCRSSQSLVYSNGDTYLHWYLQKPGQSPKLLIYKVSNRFSGVPDRFSGSGSGTDFTLKISRVEAEDLGVYFCSQSTHVPWTFGGGTKLEIKR
notes: both forms are written under this id; also called C2 VH AF/C2 VK chimeric antibody; chimeric AF
EC50 (read off the curve): ~3 ng/well
